Reference: patent US20120219562A1 (AbbVie / Abbott, published 2012)
Read-outs that look alike come from different tables or passages of the source.

T1: human interleukin 12 (p70 heterodimer of p35 and p40) (human, UniProt P29459 23-219; P29460 23-328)
T1 construct: Recombinant human IL-12; also called hIL-12; IL-12
T1 sequence (looked up) 1: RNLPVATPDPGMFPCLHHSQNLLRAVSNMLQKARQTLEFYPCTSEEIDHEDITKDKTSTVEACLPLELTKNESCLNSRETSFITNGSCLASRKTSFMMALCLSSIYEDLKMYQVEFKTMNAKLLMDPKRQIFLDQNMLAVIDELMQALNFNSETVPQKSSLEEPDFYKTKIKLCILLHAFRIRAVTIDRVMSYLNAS
T1 sequence (looked up) 2: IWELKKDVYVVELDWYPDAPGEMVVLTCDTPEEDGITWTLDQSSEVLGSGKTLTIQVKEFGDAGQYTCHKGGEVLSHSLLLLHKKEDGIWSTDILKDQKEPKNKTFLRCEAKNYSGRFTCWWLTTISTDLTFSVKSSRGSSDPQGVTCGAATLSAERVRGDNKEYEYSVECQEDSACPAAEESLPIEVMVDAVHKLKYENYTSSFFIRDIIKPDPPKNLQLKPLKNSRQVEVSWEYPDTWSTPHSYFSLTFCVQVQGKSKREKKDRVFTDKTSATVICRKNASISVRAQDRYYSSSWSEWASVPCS

B1: SEQ ID NO: 501 (Y61, A at L32) (antibody, V domains shown)
VH: QVQLVQSGGGVVQPGRSLRLSCAASGFTFSSYGMHWVRQAPGKGLEWVAFIRYDGSNKYYADSVKGRFTISRDNSKNTLYLQMKSLRAEDTAVYYCKTHGSHDNWGQGTMVTVSS
VL: SYVLTQPPSVSGTPGQRVTISCSGGRSNIGSNAVKWYQQLPGTAPKLLIYGNDQRPSGVPDRFSGSKSGTSASLAITGVQAEDEADYYCQSYDRGTHPALLFGTGTKVTVLG
B2: SEQ ID NO: 514 (Y61, N at L50) (antibody, V domains shown)
VH: QVQLVQSGGGVVQPGRSLRLSCAASGFTFSSYGMHWVRQAPGKGLEWVAFIRYDGSNKYYADSVKGRFTISRDNSKNTLYLQMKSLRAEDTAVYYCKTHGSHDNWGQGTMVTVSS
VL: SYVLTQPPSVSGTPGQRVTISCSGGRSNIGSNTVKWYQQLPGTAPKLLIYNNDQRPSGVPDRFSGSKSGTSASLAITGVQAEDEADYYCQSYDRGTHPALLFGTGTKVTVLG
B3: SEQ ID NO: 522 (Y61, I at L50) (antibody, V domains shown)
VH: QVQLVQSGGGVVQPGRSLRLSCAASGFTFSSYGMHWVRQAPGKGLEWVAFIRYDGSNKYYADSVKGRFTISRDNSKNTLYLQMKSLRAEDTAVYYCKTHGSHDNWGQGTMVTVSS
VL: SYVLTQPPSVSGTPGQRVTISCSGGRSNIGSNTVKWYQQLPGTAPKLLIYINDQRPSGVPDRFSGSKSGTSASLAITGVQAEDEADYYCQSYDRGTHPALLFGTGTKVTVLG
B4: SEQ ID NO: 511 (Y61, H at L50) (antibody, V domains shown)
VH: QVQLVQSGGGVVQPGRSLRLSCAASGFTFSSYGMHWVRQAPGKGLEWVAFIRYDGSNKYYADSVKGRFTISRDNSKNTLYLQMKSLRAEDTAVYYCKTHGSHDNWGQGTMVTVSS
VL: SYVLTQPPSVSGTPGQRVTISCSGGRSNIGSNTVKWYQQLPGTAPKLLIYHNDQRPSGVPDRFSGSKSGTSASLAITGVQAEDEADYYCQSYDRGTHPALLFGTGTKVTVLG
B5: SEQ ID NO: 503 (Y61, L at L32) (antibody, V domains shown)
VH: QVQLVQSGGGVVQPGRSLRLSCAASGFTFSSYGMHWVRQAPGKGLEWVAFIRYDGSNKYYADSVKGRFTISRDNSKNTLYLQMKSLRAEDTAVYYCKTHGSHDNWGQGTMVTVSS
VL: SYVLTQPPSVSGTPGQRVTISCSGGRSNIGSNLVKWYQQLPGTAPKLLIYGNDQRPSGVPDRFSGSKSGTSASLAITGVQAEDEADYYCQSYDRGTHPALLFGTGTKVTVLG
B6: SEQ ID NO: 508 (Y61, C at L50) (antibody, V domains shown)
VH: QVQLVQSGGGVVQPGRSLRLSCAASGFTFSSYGMHWVRQAPGKGLEWVAFIRYDGSNKYYADSVKGRFTISRDNSKNTLYLQMKSLRAEDTAVYYCKTHGSHDNWGQGTMVTVSS
VL: SYVLTQPPSVSGTPGQRVTISCSGGRSNIGSNTVKWYQQLPGTAPKLLIYCNDQRPSGVPDRFSGSKSGTSASLAITGVQAEDEADYYCQSYDRGTHPALLFGTGTKVTVLG
B7: SEQ ID NO: 507 (Y61, E at L50) (antibody, V domains shown)
VH: QVQLVQSGGGVVQPGRSLRLSCAASGFTFSSYGMHWVRQAPGKGLEWVAFIRYDGSNKYYADSVKGRFTISRDNSKNTLYLQMKSLRAEDTAVYYCKTHGSHDNWGQGTMVTVSS
VL: SYVLTQPPSVSGTPGQRVTISCSGGRSNIGSNTVKWYQQLPGTAPKLLIYENDQRPSGVPDRFSGSKSGTSASLAITGVQAEDEADYYCQSYDRGTHPALLFGTGTKVTVLG
B8: SEQ ID NO: 521 (Y61, L at L50) (antibody, V domains shown)
VH: QVQLVQSGGGVVQPGRSLRLSCAASGFTFSSYGMHWVRQAPGKGLEWVAFIRYDGSNKYYADSVKGRFTISRDNSKNTLYLQMKSLRAEDTAVYYCKTHGSHDNWGQGTMVTVSS
VL: SYVLTQPPSVSGTPGQRVTISCSGGRSNIGSNTVKWYQQLPGTAPKLLIYLNDQRPSGVPDRFSGSKSGTSASLAITGVQAEDEADYYCQSYDRGTHPALLFGTGTKVTVLG
B9: SEQ ID NO: 519 (Y61, V at L50) (antibody, V domains shown)
VH: QVQLVQSGGGVVQPGRSLRLSCAASGFTFSSYGMHWVRQAPGKGLEWVAFIRYDGSNKYYADSVKGRFTISRDNSKNTLYLQMKSLRAEDTAVYYCKTHGSHDNWGQGTMVTVSS
VL: SYVLTQPPSVSGTPGQRVTISCSGGRSNIGSNTVKWYQQLPGTAPKLLIYVNDQRPSGVPDRFSGSKSGTSASLAITGVQAEDEADYYCQSYDRGTHPALLFGTGTKVTVLG
B10: SEQ ID NO: 520 (Y61, M at L50) (antibody, V domains shown)
VH: QVQLVQSGGGVVQPGRSLRLSCAASGFTFSSYGMHWVRQAPGKGLEWVAFIRYDGSNKYYADSVKGRFTISRDNSKNTLYLQMKSLRAEDTAVYYCKTHGSHDNWGQGTMVTVSS
VL: SYVLTQPPSVSGTPGQRVTISCSGGRSNIGSNTVKWYQQLPGTAPKLLIYMNDQRPSGVPDRFSGSKSGTSASLAITGVQAEDEADYYCQSYDRGTHPALLFGTGTKVTVLG
B11: SEQ ID NO: 515 (Y61, Q at L50) (antibody, V domains shown)
VH: QVQLVQSGGGVVQPGRSLRLSCAASGFTFSSYGMHWVRQAPGKGLEWVAFIRYDGSNKYYADSVKGRFTISRDNSKNTLYLQMKSLRAEDTAVYYCKTHGSHDNWGQGTMVTVSS
VL: SYVLTQPPSVSGTPGQRVTISCSGGRSNIGSNTVKWYQQLPGTAPKLLIYQNDQRPSGVPDRFSGSKSGTSASLAITGVQAEDEADYYCQSYDRGTHPALLFGTGTKVTVLG
B12: SEQ ID NO: 505 (Y61, P at L32) (antibody, V domains shown)
VH: QVQLVQSGGGVVQPGRSLRLSCAASGFTFSSYGMHWVRQAPGKGLEWVAFIRYDGSNKYYADSVKGRFTISRDNSKNTLYLQMKSLRAEDTAVYYCKTHGSHDNWGQGTMVTVSS
VL: SYVLTQPPSVSGTPGQRVTISCSGGRSNIGSNPVKWYQQLPGTAPKLLIYGNDQRPSGVPDRFSGSKSGTSASLAITGVQAEDEADYYCQSYDRGTHPALLFGTGTKVTVLG
B13: SEQ ID NO: 513 (Y61, R at L50) (antibody, V domains shown)
VH: QVQLVQSGGGVVQPGRSLRLSCAASGFTFSSYGMHWVRQAPGKGLEWVAFIRYDGSNKYYADSVKGRFTISRDNSKNTLYLQMKSLRAEDTAVYYCKTHGSHDNWGQGTMVTVSS
VL: SYVLTQPPSVSGTPGQRVTISCSGGRSNIGSNTVKWYQQLPGTAPKLLIYRNDQRPSGVPDRFSGSKSGTSASLAITGVQAEDEADYYCQSYDRGTHPALLFGTGTKVTVLG
B14: SEQ ID NO: 502 (Y61, V at L32) (antibody, V domains shown)
VH: QVQLVQSGGGVVQPGRSLRLSCAASGFTFSSYGMHWVRQAPGKGLEWVAFIRYDGSNKYYADSVKGRFTISRDNSKNTLYLQMKSLRAEDTAVYYCKTHGSHDNWGQGTMVTVSS
VL: SYVLTQPPSVSGTPGQRVTISCSGGRSNIGSNVVKWYQQLPGTAPKLLIYGNDQRPSGVPDRFSGSKSGTSASLAITGVQAEDEADYYCQSYDRGTHPALLFGTGTKVTVLG
B15: SEQ ID NO: 504 (Y61, I at L32) (antibody, V domains shown)
VH: QVQLVQSGGGVVQPGRSLRLSCAASGFTFSSYGMHWVRQAPGKGLEWVAFIRYDGSNKYYADSVKGRFTISRDNSKNTLYLQMKSLRAEDTAVYYCKTHGSHDNWGQGTMVTVSS
VL: SYVLTQPPSVSGTPGQRVTISCSGGRSNIGSNIVKWYQQLPGTAPKLLIYGNDQRPSGVPDRFSGSKSGTSASLAITGVQAEDEADYYCQSYDRGTHPALLFGTGTKVTVLG
B16: SEQ ID NO: 512 (Y61, K at L50) (antibody, V domains shown)
VH: QVQLVQSGGGVVQPGRSLRLSCAASGFTFSSYGMHWVRQAPGKGLEWVAFIRYDGSNKYYADSVKGRFTISRDNSKNTLYLQMKSLRAEDTAVYYCKTHGSHDNWGQGTMVTVSS
VL: SYVLTQPPSVSGTPGQRVTISCSGGRSNIGSNTVKWYQQLPGTAPKLLIYKNDQRPSGVPDRFSGSKSGTSASLAITGVQAEDEADYYCQSYDRGTHPALLFGTGTKVTVLG
B17: SEQ ID NO: 518 (Y61, A at L50) (antibody, V domains shown)
VH: QVQLVQSGGGVVQPGRSLRLSCAASGFTFSSYGMHWVRQAPGKGLEWVAFIRYDGSNKYYADSVKGRFTISRDNSKNTLYLQMKSLRAEDTAVYYCKTHGSHDNWGQGTMVTVSS
VL: SYVLTQPPSVSGTPGQRVTISCSGGRSNIGSNTVKWYQQLPGTAPKLLIYANDQRPSGVPDRFSGSKSGTSASLAITGVQAEDEADYYCQSYDRGTHPALLFGTGTKVTVLG
B18: SEQ ID NO: 509 (Y61, S at L50) (antibody, V domains shown)
VH: QVQLVQSGGGVVQPGRSLRLSCAASGFTFSSYGMHWVRQAPGKGLEWVAFIRYDGSNKYYADSVKGRFTISRDNSKNTLYLQMKSLRAEDTAVYYCKTHGSHDNWGQGTMVTVSS
VL: SYVLTQPPSVSGTPGQRVTISCSGGRSNIGSNTVKWYQQLPGTAPKLLIYSNDQRPSGVPDRFSGSKSGTSASLAITGVQAEDEADYYCQSYDRGTHPALLFGTGTKVTVLG
B19: SEQ ID NO: 506 (Y61, D at L50) (antibody, V domains shown)
VH: QVQLVQSGGGVVQPGRSLRLSCAASGFTFSSYGMHWVRQAPGKGLEWVAFIRYDGSNKYYADSVKGRFTISRDNSKNTLYLQMKSLRAEDTAVYYCKTHGSHDNWGQGTMVTVSS
VL: SYVLTQPPSVSGTPGQRVTISCSGGRSNIGSNTVKWYQQLPGTAPKLLIYDNDQRPSGVPDRFSGSKSGTSASLAITGVQAEDEADYYCQSYDRGTHPALLFGTGTKVTVLG
B20: SEQ ID NO: 516 (Y61, T at L50) (antibody, V domains shown)
VH: QVQLVQSGGGVVQPGRSLRLSCAASGFTFSSYGMHWVRQAPGKGLEWVAFIRYDGSNKYYADSVKGRFTISRDNSKNTLYLQMKSLRAEDTAVYYCKTHGSHDNWGQGTMVTVSS
VL: SYVLTQPPSVSGTPGQRVTISCSGGRSNIGSNTVKWYQQLPGTAPKLLIYTNDQRPSGVPDRFSGSKSGTSASLAITGVQAEDEADYYCQSYDRGTHPALLFGTGTKVTVLG

Key:
[1] = molecular target: T1, human interleukin 12 (p70 heterodimer …); experiment: SPR (BIAcore), off-rate
[2] = molecular target: T1, human interleukin 12 (p70 heterodimer …); experiment: SPR (BIAcore), off-rate; remark: listed apart in the source

| Binder | koff [1] | koff [2] |
| --- | --- | --- |
| B1 | 0.00191 s⁻¹ | – |
| B2 | – | 0.000305 s⁻¹ |
| B3 | – | 0.0012 s⁻¹ |
| B4 | – | 0.000761 s⁻¹ |
| B5 | 0.00215 s⁻¹ | – |
| B6 | – | 0.000467 s⁻¹ |
| B7 | – | 0.000617 s⁻¹ |
| B8 | – | 0.000616 s⁻¹ |
| B9 | – | 0.000385 s⁻¹ |
| B10 | – | 0.000953 s⁻¹ |
| B11 | – | 0.000348 s⁻¹ |
| B12 | 0.000424 s⁻¹ | – |
| B13 | – | 0.000444 s⁻¹ |
| B14 | 0.00164 s⁻¹ | – |
| B15 | 0.00154 s⁻¹ | – |
| B16 | – | 0.00243 s⁻¹ |
| B17 | – | 0.000372 s⁻¹ |
| B18 | – | 0.000286 s⁻¹ |
| B19 | – | 0.000348 s⁻¹ |
| B20 | – | 0.000272 s⁻¹ |
